These results are taken from ChEMBL document CHEMBL1134058, “Phospho-Azatyrosine, a less effective protein-tyrosine phosphatase substrate than phosphotyrosine” (Bioorg Med Chem Lett, 2001).

Substrate in data set [1]: CC(=O)N[C@@H](CC(=O)O)C(=O)N[C@@H](C)C(=O)N[C@@H](CC(=O)O)C(=O)N[C@@H](CCC(=O)O)C(=O)N[C@@H](Cc1ccc(OP(=O)(O)O)cc1)C(=O)N[C@@H](CC(C)C)C(N)=O
The data set can be described thus: (§1) Binding affinity constant against mammalian protein-tyrosine phosphatase 1 (PTP1).

Substrate in data set [2]: CC(=O)N[C@@H](CC(=O)O)C(=O)N[C@@H](C)C(=O)N[C@@H](CC(=O)O)C(=O)N[C@@H](CCC(=O)O)C(=O)N[C@@H](Cc1ccc(OP(=O)(O)O)cn1)C(=O)N[C@@H](CC(C)C)C(N)=O
Described as §1.

B1: Tyrosine-protein phosphatase non-receptor type 1 (Homo sapiens), P18031 (protein)
chain: MEMEKEFEQIDKSGSWAAIYQDIRHEASDFPCRVAKLPKNKNRNRYRDVSPFDHSRIKLHQEDNDYINASLIKMEEAQRSYILTQGPLPNTCGHFWEMVWEQKSRGVVMLNRVMEKGSLKCAQYWPQKEEKEMIFEDTNLKLTLISEDIKSYYTVRQLELENLTTQETREILHFHYTTWPDFGVPESPASFLNFLFKVRESGSLSPEHGPVVVHCSAGIGRSGTFCLADTCLLLMDKRKDPSSVDIKKVLLEMRKFRMGLIQTADQLRFSYLAVIEGAKFIMGDSSVQDQWKELSHEDLEPPPEHIPPPPRPPKRILEPHNGKCREFFPNHQWVKEETQEDKDCPIKEEKGSPLNAAPYGIESMSQDTEVRSRVVGGSLRGAQAASPAKGEPSLPEKDEDHALSYWKPFLVNMCVATVLTAGAYLCYRFLFNSNT
One may read the Km as the substrate concentration at which the rate is half of its maximum. Consider B1, for which the Km in data set [1] came out at 3.6 µM; in data set [2] it was 210 µM.
